Source: patent US20240293316A1, “ENZYME-RESPONSIVE POLYMER PEPTIDE AMPHIPHILES FOR TARGETED DRUG DELIVERY TO TREAT LOCAL AND SYSTEMIC INFLAMMATION” (Ramot at Tel-Aviv University Ltd., priority 2021, published 2024)
Square brackets hold non-standard residues; d marks the D form. Ends that are not written are not given here. * marks the point of attachment. NorAHA = (N-hexanoic acid)-5-norbornene-exo-2,3-dicarboximide, O=C1[C@@H]2[C@H](C(=O)N1CCCCCC(=O)*)[C@H]1C=C[C@@H]2C1

Legend:
[1] = Properties of the designed random peptide (water solubility, net charge); format: physicochemical
Procedure: A new random peptide sequence was designed by replacing the MMP recognizable amino acid sequence PLGLAG (SEQ ID NO: 16) into GSGSGS (SEQ ID NO: 20).
Following the preparation of peptide functionalized norbornene monomers, an MMP-9 cleavage assay was performed setup, as described in the Materials and Methods section hereinabove.

[2] = biological target: MMP-9 (Homo sapiens, UniProt P14780); assay: MMP-9 cleavage assay of norbornene peptide monomers (HPLC); format: biochemical; settings: 0.5 μM MMP-9: 500 μM NorMMP, 24 hours of incubation at 37° C.
Procedure: Stock solution of NorMMP peptide (510 μM) was prepared in DPBS buffer. To an Eppendorf tube, 1.5 μL MMP-9 stock (38.46 μM) and […] of NorMMP stock was added, giving a final concentration of 0.5 μM MMP-9: 500 μM NorMMP. The solution was incubated at 37° C. for 24 hours to promote peptide cleavage. To prepare the HPLC sample, 50 μL of the reaction mixture was added to 150 μL of DPBS buffer. 40 μL of resulting solution was injected into HPLC for analysis. For NorMMPL, NorMMPD and the cleavable sequence ([…]), a gradient of 20-60% Buffer B over 30 minutes was used. For the NorMMPR, a gradient of 20-40% Buffer B in 30 minutes was used.
Three test groups, including the norbornenes functionalized with random peptide (NorMMPR), D- and L-MMP peptide (NorMMPD and NorMMPL), and one control group with the cleaved peptide sequence […] were setup.

[3] = biological target: thermolysin (Bacillus thermoproteolyticus, UniProt P00800); settings: 1 μM thermolysin:100 μM polymer, 24 hours incubation at 37° C.
Procedure: Transmission electron microscopy (TEM): Nanoparticles were characterized using a Hitachi HD-2300 STEM. Grids were prepared using a 1% uranyl acetate solution.
The nanoparticle cleavage experiment was performed similarly as described in Materials and Methods section, using a ratio of 1 μM thermolysin:100 μM polymer for 24 hours incubation at 37° C.

[4] = tested on: diabetic rats following collagen membrane implantation; assay: Diabetic rats with implanted collagen membrane, fluorescence imaging of DEX-containing nanoparticles; format: in vivo, Female Sprague Dawley rats; settings: for order of in-vivo fluorescence intensity: 7- and 14-days post injection
Procedure: (§1) “Diabetic induction” model [Zoabi et al. 2020, supra]: Type 1-like diabetes was induced through a single intraperitoneal injection of streptozotocin, and the induction of hyperglycemia is confirmed by a blood glucose level that is higher than 270 mg/dL at 7 days post injection;
(§2) “Collagen membrane implantation” under scalp of diabetic rats, wherein a para-sagital excisional wound, 10 mm in length, was created in the center of the skin of the calvaria, the periosteum was separated from the skull bone, and a collagen membrane was implanted beneath [Eliezer M, Nemcovsky C, Romanos G, Kozlovsky A, Tal H, Kolerman R, Weinreb M, Moses O. Opposing effects of diabetes and tetracycline on the degradation of collagen membranes in rats. J Periodontol. 2013 April; 84(4):529-34; Tal H, Weinreb M, Shely A, Nemcovsky C E, Moses O. Tetracycline impregnation affects degradation of porcine collagen matrix in healthy and diabetic rats. Clin Oral Investig. 2016 July; 20(6):1237-42; Moses O, Eliezer M, Nemcovsky C, Tal H, Weinreb M. Accelerated degradation of collagen membranes in diabetic rats is associated with increased infiltration of macrophages and blood vessels. Clin Oral Investig. 2016 September; 20(7):1589-96; Eliezer M, Sculean A, Miron R J, Nemcovsky C, Weinberg E, Weinreb M, Zoabi H, Bosshardt D D, Fujioka-Kobayashi M, Moses O. Hyaluronic acid slows down collagen membrane degradation in uncontrolled diabetic rats. J Periodontal Res. 2019 December; 54(6):644-652; and Zoabi H, Nemcovsky C E, Bender O, Moses O, Weinreb M. Accelerated degradation of collagen membranes in type 1 diabetic rats is associated with increased expression and production of several inflammatory molecules. J Periodontol. 2020 October; 91(10):1348-13561.
Type 1-like diabetes was induced as described in the Materials and Methods section, and the induction of hyperglycemia was confirmed by a blood glucose level higher than 270 mg/dL 7 days post injection (see, FIGS. 13A and 13B).
(§3) At day 8, the rats were randomly divided into five groups to receive one single dosage of: i) NPL, ii) NPD, iii) NPR, iv) free DEX, or v) no injection, through a subcutaneous injection posterior to the ear (n=12 for each treatment group and n=3 for the no injection control group). For each treated group, 260 μg of DEX (either free-form or conjugated to the polymer) was used to provide a […] dosage similar to the literature value. Thus, the PPA NPs injection contained 250 μM polymer with 50% (125 μM) Cy 5.5 labeling, for each 200 μL injection.

[5] = tested on: diabetic rats following collagen membrane implantation; assay: Diabetic rats with implanted collagen membrane, histology of residual collagen membrane (HRP-Avidin); format: in vivo, Female Sprague Dawley rats
Procedure: as §1, §2, §3
Two weeks following injection, the rats were sacrificed with carbon dioxide overdose, and the skull together with the over lining periosteum and the membrane were harvested.
The harvested skull together with the over lining periosteum and the membrane were subjected to the following processing: tissues from 10 rats per group were fixed with paraformaldehyde, and processed for decalcified tissue histology, embedded in paraffin. […]

[6] = single dose, 260 μg of DEX, two weeks following injection

Sequence of thermolysin (P00800 233-548, species assumed): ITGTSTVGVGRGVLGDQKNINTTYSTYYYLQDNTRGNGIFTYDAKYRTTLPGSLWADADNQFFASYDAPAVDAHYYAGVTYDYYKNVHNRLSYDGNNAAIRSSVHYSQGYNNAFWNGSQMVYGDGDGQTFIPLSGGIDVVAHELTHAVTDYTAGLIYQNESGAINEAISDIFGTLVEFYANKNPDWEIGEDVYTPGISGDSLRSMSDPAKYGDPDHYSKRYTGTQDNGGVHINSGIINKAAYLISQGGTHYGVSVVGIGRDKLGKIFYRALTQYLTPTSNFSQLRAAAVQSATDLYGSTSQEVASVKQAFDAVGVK
Sequence of MMP-9 (P14780 94-707): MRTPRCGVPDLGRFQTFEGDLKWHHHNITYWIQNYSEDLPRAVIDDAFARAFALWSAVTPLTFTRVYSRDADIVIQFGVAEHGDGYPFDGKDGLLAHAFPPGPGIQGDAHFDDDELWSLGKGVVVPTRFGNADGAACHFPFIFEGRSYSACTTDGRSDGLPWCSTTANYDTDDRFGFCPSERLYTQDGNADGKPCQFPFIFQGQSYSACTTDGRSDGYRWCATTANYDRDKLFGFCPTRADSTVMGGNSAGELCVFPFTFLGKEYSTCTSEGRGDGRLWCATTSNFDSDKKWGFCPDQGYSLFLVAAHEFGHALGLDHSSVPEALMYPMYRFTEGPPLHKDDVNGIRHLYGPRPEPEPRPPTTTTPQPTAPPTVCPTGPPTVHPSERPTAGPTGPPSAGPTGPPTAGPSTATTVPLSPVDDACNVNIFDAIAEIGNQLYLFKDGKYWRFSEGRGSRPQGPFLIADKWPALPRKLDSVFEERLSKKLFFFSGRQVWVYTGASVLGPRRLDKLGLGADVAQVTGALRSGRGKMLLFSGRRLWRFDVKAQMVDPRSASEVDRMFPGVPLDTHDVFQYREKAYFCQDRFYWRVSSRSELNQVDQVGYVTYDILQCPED

Substance | cleavage by MMP-9 (HPLC traces) [2] | nanoparticle morphology upon thermolysin treatment (TEM) [3] | order of in-vivo fluorescence intensity [4] | also measured
GGSGSGSGWGERDGS-NH2 (C-terminus assumed) [random peptide] |  |  |  | water solubility [1]: good water solubility
NorMMPD: norbornene monomer with D-MMP peptide (SEQ ID NO: 2), D-amino acids in the PLGLAG portion (NorAHA-G[dP][dL]G[dL][dA]GGERDG-NH2; not fully specified) | remained intact |  |  | 
NorMMPL: norbornene monomer functionalized with L-MMP peptide (SEQ ID NO: 1), MMP-cleavable (NorAHA-GPLGLAGGERDG-NH2; SMILES CC(C)C[C@H](NC(=O)CNC(=O)[C@H](CC(C)C)NC(=O)[C@@H]1CCCN1C(=O)CNC(=O)CCCCCN1C(=O)[C@@H]2[C@H](C1=O)[C@H]1C=C[C@@H]2C1)C(=O)N[C@@H](C)C(=O)NCC(=O)NCC(=O)N[C@@H](CCC(=O)O)C(=O)N[C@@H](CCCNC(=N)N)C(=O)N[C@@H](CC(=O)O)C(=O)NCC(N)=O) | completely cleaved |  |  | 
NorMMPR: norbornene monomer with R-MMP random peptide (SEQ ID NO: 17) (NorAHA-GGSGSGSGWGERDGS-NH2; not fully specified) | remained intact |  |  | 
NPL: micellar nanoparticles formed of DEX-containing L-MMP-containing PPA (PPAL) (NorAHA-GPLGLAGGERDG-NH2; not fully specified; also: micellar nanoparticle of NorDEX20-b-NorMMP5 polynorbornene block copolymer with DEX ester) |  | cleavage induced aggregation | NPL>NPD>NPR | in-vivo fluorescence intensity compared to NPD and NPR controls ([4]; 7- and 14-days post injection (day 14 and day 21)): significantly higher; collagen membrane area, higher than the free dexamethasone group [5, 6]: about 20%; collagen membrane area, higher than the no treatment group [5, 6]: about 40%; remaining collagen membrane area compared to free-form dexamethasone-treated group [5, 6]: significantly larger; voids in the residual collagen membranes compared to free-form dexamethasone and no injection groups ([5]; staining and histology analysis): significantly less voids
NPD: micellar nanoparticles formed of DEX-containing D-MMP-containing PPA (PPAD) (NorAHA-G[dP][dL]G[dL][dA]GGERDG-NH2; not fully specified; also: grafted via NorAHA into ROMP polynorbornene block copolymer, micellar nanoparticle) |  | maintained their nanoparticle morphology | NPL>NPD>NPR | 
MMP peptide: peptide comprising PLGLAG sequence with all L-amino acids (SEQ ID NO: 1), MMP-cleavable (GPLGLAGGERDG-NH2) |  |  |  | net charge ([1]; pH=7): −1
NPR: micellar nanoparticles formed of DEX-containing random-peptide PPA (PPAR) (GGSGSGSGWGERDGS) |  | maintained their nanoparticle morphology | NPL>NPD>NPR | 
